Test results as given in patent US20160185837A1 (AstraZeneca / MedImmune, published 2016).
Substitutions are numbered along the chain they refer to.

T1: human GIP receptor (human, UniProt P48546 22-466)
T1 sequence (looked up): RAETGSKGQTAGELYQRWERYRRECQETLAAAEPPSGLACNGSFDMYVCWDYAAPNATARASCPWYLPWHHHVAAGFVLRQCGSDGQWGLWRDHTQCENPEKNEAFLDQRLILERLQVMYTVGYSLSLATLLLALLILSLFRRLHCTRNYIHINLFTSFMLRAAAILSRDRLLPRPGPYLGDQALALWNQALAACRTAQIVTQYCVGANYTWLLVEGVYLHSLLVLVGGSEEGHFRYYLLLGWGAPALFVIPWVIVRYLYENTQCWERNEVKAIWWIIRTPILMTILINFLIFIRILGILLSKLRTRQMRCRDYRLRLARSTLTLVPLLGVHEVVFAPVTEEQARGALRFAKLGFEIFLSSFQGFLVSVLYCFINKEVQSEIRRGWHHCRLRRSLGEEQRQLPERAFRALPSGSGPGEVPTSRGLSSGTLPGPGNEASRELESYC

T2: rat GIP receptor (rat, UniProt P43219 19-455)
T2 sequence (looked up): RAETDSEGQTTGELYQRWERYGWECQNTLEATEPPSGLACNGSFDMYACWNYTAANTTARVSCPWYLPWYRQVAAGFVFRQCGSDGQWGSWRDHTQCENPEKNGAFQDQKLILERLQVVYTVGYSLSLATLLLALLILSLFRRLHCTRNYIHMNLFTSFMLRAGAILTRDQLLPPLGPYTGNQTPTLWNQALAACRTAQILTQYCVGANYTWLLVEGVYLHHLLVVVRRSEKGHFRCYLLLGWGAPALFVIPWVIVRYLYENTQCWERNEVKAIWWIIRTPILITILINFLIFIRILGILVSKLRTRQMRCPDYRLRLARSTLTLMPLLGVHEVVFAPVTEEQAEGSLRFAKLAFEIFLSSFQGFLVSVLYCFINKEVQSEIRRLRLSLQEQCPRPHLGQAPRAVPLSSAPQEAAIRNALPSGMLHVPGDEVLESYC

T3: mouse GIP receptor (mouse, UniProt Q0P543 19-460)
T3 sequence (looked up): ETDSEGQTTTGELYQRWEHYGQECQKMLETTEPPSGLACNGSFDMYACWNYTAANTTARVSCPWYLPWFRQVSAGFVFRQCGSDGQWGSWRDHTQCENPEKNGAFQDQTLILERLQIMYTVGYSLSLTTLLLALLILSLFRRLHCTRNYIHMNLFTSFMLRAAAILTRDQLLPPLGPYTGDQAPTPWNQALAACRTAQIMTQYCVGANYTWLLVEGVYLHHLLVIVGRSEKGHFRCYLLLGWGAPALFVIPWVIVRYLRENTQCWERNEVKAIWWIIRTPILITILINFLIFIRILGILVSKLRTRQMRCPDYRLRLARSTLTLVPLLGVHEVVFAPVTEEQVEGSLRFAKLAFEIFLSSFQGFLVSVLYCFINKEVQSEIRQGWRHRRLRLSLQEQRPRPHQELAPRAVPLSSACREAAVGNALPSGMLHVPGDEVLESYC

T4: rat GLP-1 receptor (rat, UniProt P32301 22-463)
T4 sequence (looked up): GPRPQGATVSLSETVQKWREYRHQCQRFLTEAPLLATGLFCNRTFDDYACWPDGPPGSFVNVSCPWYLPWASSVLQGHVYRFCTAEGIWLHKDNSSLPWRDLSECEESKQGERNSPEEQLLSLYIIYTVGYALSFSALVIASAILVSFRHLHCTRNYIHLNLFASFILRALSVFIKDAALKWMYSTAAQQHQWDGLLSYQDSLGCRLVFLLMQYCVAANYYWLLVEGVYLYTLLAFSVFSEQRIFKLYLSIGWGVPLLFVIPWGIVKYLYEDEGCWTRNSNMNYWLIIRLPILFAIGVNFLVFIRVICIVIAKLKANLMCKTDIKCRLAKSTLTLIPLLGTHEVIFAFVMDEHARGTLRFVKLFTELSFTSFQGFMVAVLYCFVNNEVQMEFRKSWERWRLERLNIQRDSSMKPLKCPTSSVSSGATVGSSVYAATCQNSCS

T5: mouse GLP-1 receptor (mouse, UniProt O35659 22-463)
T5 sequence (looked up): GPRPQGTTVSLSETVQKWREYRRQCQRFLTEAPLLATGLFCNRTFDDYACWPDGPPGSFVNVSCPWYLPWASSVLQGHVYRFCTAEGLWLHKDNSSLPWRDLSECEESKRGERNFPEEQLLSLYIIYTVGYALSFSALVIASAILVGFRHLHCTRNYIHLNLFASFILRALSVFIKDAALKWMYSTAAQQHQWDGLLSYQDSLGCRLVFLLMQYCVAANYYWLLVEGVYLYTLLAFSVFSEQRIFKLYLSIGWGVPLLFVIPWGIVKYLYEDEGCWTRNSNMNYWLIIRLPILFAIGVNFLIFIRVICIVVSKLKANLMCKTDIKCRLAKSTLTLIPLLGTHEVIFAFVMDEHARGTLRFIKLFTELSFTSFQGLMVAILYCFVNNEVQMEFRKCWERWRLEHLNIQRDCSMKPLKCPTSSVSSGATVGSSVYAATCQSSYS

B1: IP371 (Fc fusion)
chain: YSEGMHTSDLSKLLEEEAVRLFIEWLLAGGGGGGGSGGGGSGGGGSGGGGSACPPC
B2: IP372 (Fc fusion)
chain: B1 chain with M5T, H6F, L10Y, K12I, L13Y, E15D
B3: IP298 (Fc fusion)
chain: YSEGTFTSDVSSYLERQAIDEFIAWLLKGGAAAGGSGSTASSGSGSATGGGGAATHTCPPC
B4: IP317 (Fc fusion)
chain: B3 chain with R16K
B5: IP304 (Fc fusion)
chain: B3 chain with D20E
B6: IP390 (Fc fusion)
chain: YSEGTFTSDYSKLLEEEAVRLFIEWLVKGPGGGGGSGGGGSGGGGSGGGGSGGGGSACPPC
B7: IP403 (Fc fusion)
chain: YSEGTHTSDLRILLEEEAVRLFIEKLLAGGGSGGGGSGGGGSGGGGSGGGGSGGGGSGGGGSGGGGSACPPC
B8: IP360 (Fc fusion)
chain: YSEGTFTSDYRILLEEEAVRLFIEWLLAGGGGGGSGGGGSGGGGSGGGGSATHTCPPC
B9: IP370 (Fc fusion)
chain: B8 chain with D9L, R11S, I12K, L14K
B10: IP384 (Fc fusion)
chain: B8 chain with R11S, I12K, A28K
B11: IP382 (Fc fusion)
chain: B8 chain with D9L, R11S, I12K, W25Y
B12: IP363 (Fc fusion)
chain: B8 chain with I12M, L14K
B13: IP362 (Fc fusion)
chain: B8 chain with R11M, I12M, L14K
B14: IP400 (Fc fusion)
chain: B8 chain with F6H, Y10L, R11S, I12K
B15: IP379 (Fc fusion)
chain: B8 chain with F6H, Y10F, R11S, I12K
B16: IP374 (Fc fusion)
chain: B8 chain with D9L, R11S, I12K
B17: IP361 (Fc fusion)
chain: B8 chain with L14K

The binders below were run against T1, human GIP receptor (assay: cell-based or functional assay).

Row | Binder | cAMP EC50 | cAMP EC50, hGIPr (C3) line
1 | B1 | 0.011 nM | –
2 | B2 | 0.05 nM | –
3 | B3 | 0.14 nM | –
4 | B4 | 0.11 nM | –
5 | B5 | 0.1 nM | –
6 | B6 | 0.0088 nM | –
7 | B7 | 16 nM | –
8 | B8 | 0.016 nM | 2.5 nM
9 | B9 | 0.19 nM | –
10 | B10 | 0.0062 nM | –
11 | B11 | 0.19 nM | –
12 | B12 | 0.056 nM | –
13 | B13 | 0.061 nM | –
14 | B14 | 0.002 nM | –
15 | B15 | 0.0038 nM | –
16 | B16 | 0.2 nM | –
17 | B17 | 0.082 nM | –

What follows are binders tested against human GLP-1 receptor (human, UniProt P43220 24-463) (assay: cell-based or functional assay).

Row | Binder | cAMP EC50
18 | B1 | 0.48 nM
19 | B2 | 0.71 nM
20 | B3 | 0.18 nM
21 | B4 | 0.13 nM
22 | B5 | 0.16 nM
23 | B6 | 0.13 nM
24 | B7 | 960 nM
25 | B8 | 0.31 nM
26 | B9 | 0.62 nM
27 | B10 | 0.091 nM
28 | B11 | 1.5 nM
29 | B12 | 0.98 nM
30 | B13 | 1.7 nM
31 | B14 | 0.29 nM
32 | B15 | 0.84 nM
33 | B16 | 1.4 nM
34 | B17 | 3.4 nM

Each binder was assayed against T2, rat GIP receptor (assay: cell-based or functional assay).

Row | Binder | cAMP EC50
35 | B1 | 0.21 nM
36 | B2 | 27 nM
37 | B3 | 7.5 nM
38 | B4 | 5.3 nM
39 | B5 | 4.6 nM
40 | B6 | 0.23 nM
41 | B7 | 0.02 nM
42 | B8 | 0.033 nM
43 | B9 | 0.13 nM
44 | B10 | 0.043 nM
45 | B11 | 0.92 nM
46 | B12 | 0.045 nM
47 | B13 | 0.083 nM
48 | B14 | 0.087 nM
49 | B15 | 0.41 nM
50 | B16 | 0.41 nM
51 | B17 | 0.038 nM

Each binder was assayed against T3, mouse GIP receptor (assay: cell-based or functional assay).

Row | Binder | cAMP EC50
52 | B1 | 280 nM
53 | B2 | 450 nM
54 | B3 | 80 nM
55 | B4 | 86 nM
56 | B5 | 16 nM
57 | B6 | 3.6 nM
58 | B7 | 21 nM
59 | B8 | 0.36 nM
60 | B9 | 0.48 nM
61 | B10 | 4.1 nM
62 | B11 | 6.5 nM
63 | B12 | 0.31 nM
64 | B13 | 1.1 nM
65 | B14 | 380 nM
66 | B15 | 150 nM
67 | B16 | 1.9 nM
68 | B17 | 0.19 nM

What follows are binders tested against human glucagon receptor (human, UniProt P47871 26-477) (assay: cell-based or functional assay).

Row | Binder | cAMP EC50
69 | B1 | > 6560 nM
70 | B2 | > 3880 nM
71 | B3 | > 13100 nM
72 | B4 | > 5550 nM
73 | B5 | 2600 nM
74 | B6 | > 218 nM
75 | B7 | 960 nM
76 | B8 | 63 nM
77 | B9 | > 9490 nM
78 | B10 | 26 nM
79 | B11 | 120 nM
80 | B12 | 560 nM
81 | B13 | > 4960 nM
82 | B14 | 1300 nM
83 | B15 | > 13200 nM
84 | B16 | > 2090 nM
85 | B17 | > 6200 nM

The binders below were run against T4, rat GLP-1 receptor (assay: cell-based or functional assay).

Row | Binder | cAMP EC50
86 | B1 | 1.1 nM
87 | B2 | 2.9 nM
88 | B3 | 0.015 nM
89 | B4 | 0.012 nM
90 | B5 | 0.024 nM
91 | B6 | 0.024 nM
92 | B7 | 73 nM
93 | B8 | 0.15 nM
94 | B9 | 0.35 nM
95 | B10 | 0.024 nM
96 | B11 | 0.68 nM
97 | B12 | 1.4 nM
98 | B13 | 1.1 nM
99 | B14 | 0.19 nM
100 | B15 | 1.5 nM
101 | B16 | 0.89 nM
102 | B17 | 18 nM

These binders were tested against T5, mouse GLP-1 receptor (assay: cell-based or functional assay).

Row | Binder | cAMP EC50
103 | B1 | 8.5 nM
104 | B2 | 33 nM
105 | B3 | 0.36 nM
106 | B4 | 0.33 nM
107 | B5 | 0.69 nM
108 | B6 | 2 nM
109 | B7 | > 1740 nM
110 | B8 | 1.2 nM
111 | B9 | 13 nM
112 | B10 | 0.99 nM
113 | B11 | 16 nM
114 | B12 | 11 nM
115 | B13 | 11 nM
116 | B14 | 31 nM
117 | B15 | 44 nM
118 | B16 | 19 nM
119 | B17 | 170 nM
